Experimental data reported in patent US20250145711A1 (Janssen / Centocor, published 2025).

T1: Human CD79b, endogenous on diffuse large B-cell lymphoma cell lines (human, UniProt P40259 29-229)
T1 construct: On HBL-1, OCI-LY10 and Carnaval cells, which also carry CD20; also called Igβ
T1 sequence: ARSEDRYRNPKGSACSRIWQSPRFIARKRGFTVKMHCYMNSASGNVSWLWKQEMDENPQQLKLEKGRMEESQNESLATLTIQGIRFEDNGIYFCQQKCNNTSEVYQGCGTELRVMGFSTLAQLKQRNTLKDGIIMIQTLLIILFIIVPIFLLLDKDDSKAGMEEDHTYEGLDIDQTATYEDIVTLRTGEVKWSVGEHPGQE

T2: Human CD79b short isoform, recombinant extracellular domain (CD9W7.001) (human, UniProt P40259 29-159)
T2 chain: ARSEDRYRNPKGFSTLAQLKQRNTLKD

T3: Human CD79b long isoform, recombinant extracellular domain (CD9W8.001) (human, UniProt P40259 29-159)
T3 construct: extracellular domain; also called hu CD79b long
T3 sequence (looked up): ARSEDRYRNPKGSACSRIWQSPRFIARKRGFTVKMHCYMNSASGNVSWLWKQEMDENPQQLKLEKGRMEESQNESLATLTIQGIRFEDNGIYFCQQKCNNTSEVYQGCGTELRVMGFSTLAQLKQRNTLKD

B1: CD3B1127 (scFv)
scFv: QVQLQQSGAELARPGASVKMSCKASGYTFTRSTMHWVKQRPGQGLEWIGYINPSSAYTNYNQKFKDKATLTADKSSSTAYMQLSSLTSEDSAVYYCASPQVHYDYNGFPYWGQGTLVTVSAGGSEGKSSGSGSESKSTGGSQVVLTQSPAIMSAFPGEKVTMTCSASSSVSYMNWYQQKSGTSPKRWIYDSSKLASGVPARFSGSGSGTSYSLTISSMETEDAATYYCQQWSRNPPTFGGGTKLQIT
notes: also called Murine HL; murine Cris-7 scFv (HL)
B2: 79C3B646 (bispecific antibody, human IgG1, lambda, L234A L235A)
heavy: QVQLQQSGPGLVKPSQTLSLTCAISGDSVSSNSATWNWIRQSPSRGLEWLGRTYYRSKWYNDYTVSVKSRITINPDTSKNQFSLQLNSVTPEDTAVYYCTRVDIAFDYWGQGTLVTVSSASTKGPSVFPLAPSSKSTSGGTAALGCLVKDYFPEPVTVSWNSGALTSGVHTFPAVLQSSGLYSLSSVVTVPSSSLGTQTYICNVNHKPSNTKVDKKVEPKSCDKTHTCPPCPAPEAAGGPSVFLFPPKPKDTLMISRTPEVTCVVVSVSHEDPEVKFNWYVDGVEVHNAKTKPREEQYNSTYRVVSVLTVLHQDWLNGKEYKCKVSNKALPAPIEKTISKAKGQPREPQVYTLPPSREEMTKNQVSLSCAVKGFYPSDIAVEWESNGQPENNYKTTPPVLDSDGSFFLVSKLTVDKSRWQQGNVFSCSVMHEALHNRFTQKSLSLSPGK
light: QTVVTQPPSVSEAPRQRVTISCSGSSSNIGNHGVNWYQQLPGKAPKLLIYNDDLLPSGVSDRFSGSTSGTSGSLAISGLQSEDEADYYCAAWDDSLNGVVFGGGTKLTVLGQPKAAPSVTLFPPSSEELQANKATLVCLISDFYPGAVTVAWKADSSPVKAGVETTTPSKQSNNKYAASSYLSLTPEQWKSHRSYSCQVTHEGSTVEKTVAPTECS
chain: EIVLTQSPATLSASPGERVTLSCSASSSVSYMNWYQQKPGQAPRRWIYDSSKLASGVPARFSGSGSGRDYTLTISSLEPEDFAVYYCQQWSRNPPTFGGGTKVEIKGGSEGKSSGSGSESKSTGGSQVQLVQSGAEVKKPGSSVKVSCKASGYTFTRSTMHWVKQAPGQGLEWIGYINPSSAYTNYNQKFQGRVTLTADKSTSTAYMELSSLRSEDTAVYYCASPQVHYDYAGFPYWGQGTLVTVSSEPKSSDKTHTCPPCPAPEAAGGPSVFLFPPKPKDTLMISRTPEVTCVVVSVSHEDPEVKFNWYVDGVEVHNAKTKPREEQYNSTYRVVSVLTVLHQDWLNGKEYKCKVSNKALPAPIEKTISKAKGQPREPQVYTLPPSREEMTKNQVSLWCLVKGFYPSDIAVEWESNGQPENNYKTTPPVLDSDGSFFLYSKLTVDKSRWQQGNVFSCSVMHEALHNHYTQKSLSLSPGK
notes: IgG1; HC1/LC form the CD79b Fab arm; HC2 is the CD3 scFv-Fc arm; Knobs-in-holes; also called CD79bxCD3 bsAb; CD9B330-N31S x CD3B2030-N106A
B3: 79C3B651 (bispecific antibody, human IgG1, kappa, L234A L235A)
heavy: QVQLQESGPGLVKPSQTLSLTCTVSGVSISNYYWSWIRQPPGKGLEWIGRISPSGRTNYNPSLKSRVTMSLDASKNQFSLKLSSVTAADTAVYYCARGEYSGTYSYSFDIWGQGTMVTVSSASTKGPSVFPLAPSSKSTSGGTAALGCLVKDYFPEPVTVSWNSGALTSGVHTFPAVLQSSGLYSLSSVVTVPSSSLGTQTYICNVNHKPSNTKVDKKVEPKSCDKTHTCPPCPAPEAAGGPSVFLFPPKPKDTLMISRTPEVTCVVVSVSHEDPEVKFNWYVDGVEVHNAKTKPREEQYNSTYRVVSVLTVLHQDWLNGKEYKCKVSNKALPAPIEKTISKAKGQPREPQVYTLPPSREEMTKNQVSLSCAVKGFYPSDIAVEWESNGQPENNYKTTPPVLDSDGSFFLVSKLTVDKSRWQQGNVFSCSVMHEALHNRFTQKSLSLSPGK
light: DIQMTQSPSSLSASVGDRVTITCRSSQSLFDSDDGNTYLDWFQQKPGQSPKLLIQTLSYRASGVPSRFSGSGSGTDFTLTISSLQPEDFATYYCMQRMEFPLTFGGGTKVEIKRTVAAPSVFIFPPSDEQLKSGTASVVCLLNNFYPREAKVQWKVDNALQSGNSQESVTEQDSKDSTYSLSSTLTLSKADYEKHKVYACEVTHQGLSSPVTKSFNRGEC
chain: EIVLTQSPATLSASPGERVTLSCSASSSVSYMNWYQQKPGQAPRRWIYDSSKLASGVPARFSGSGSGRDYTLTISSLEPEDFAVYYCQQWSRNPPTFGGGTKVEIKGGSEGKSSGSGSESKSTGGSQVQLVQSGAEVKKPGSSVKVSCKASGYTFTRSTMHWVKQAPGQGLEWIGYINPSSAYTNYNQKFQGRVTLTADKSTSTAYMELSSLRSEDTAVYYCASPQVHYDYAGFPYWGQGTLVTVSSEPKSSDKTHTCPPCPAPEAAGGPSVFLFPPKPKDTLMISRTPEVTCVVVSVSHEDPEVKFNWYVDGVEVHNAKTKPREEQYNSTYRVVSVLTVLHQDWLNGKEYKCKVSNKALPAPIEKTISKAKGQPREPQVYTLPPSREEMTKNQVSLWCLVKGFYPSDIAVEWESNGQPENNYKTTPPVLDSDGSFFLYSKLTVDKSRWQQGNVFSCSVMHEALHNHYTQKSLSLSPGK
notes: IgG1; HC1/LC form the CD79b Fab arm; HC2 is the CD3 scFv-Fc arm; Knobs-in-holes; also called CD79bxCD3 bsAb; CD9B643 x CD3B2030-N106A
B4: CD3B1136 (scFv)
scFv, VL-linker-VH (LH): EIVLTQSPATLSLSPGERATLSCSASSSVSYMNWYQQKPGTSPRRLIYDSSKLASGIPARFSGSGSGRDYTLTISSLEPEDFAVYYCQQWSRNPPTFGGGTKVEIKGGSEGKSSGSGSESKSTGGSEVQLVQSGAEVKKPGESLRISCKASGYTFTRSTMHWVRQMPGKGLEWMGYINPSSAYTNYNPSFQGHVTLSADKSISTAYLQWSSLKASDTAMYYCARPQVHYDYNGFPYWGQGTLVTVSS

Tests used:
[1] = target: T4, TRCW5 antigen (CD3δε-Fc-Avi) (biotinylated (site not stated)); assay: ELISA, E. coli scFv on biotinylated TRCW5
T4 construct: also called recombinant CD3
Description: (§1) Briefly, DNA was transformed into an E. coli expression vector to generate scFv molecules having a C-terminal HA-tag, and cells were plated on 2×YT/Carb/2% Glucose grown overnight at 37 C. Colonies were picked and transferred 50 ul of overnight growth cultures to new plates containing 500 ul of 2×YT/Carb/0.1% Glucose, grown for 6-7 hr, and combined with 50 ul 2×YT medium containing 1×carbenicillin & 12×IPTG. Cultures were incubated with shaking ˜600 RPM 30° C. overnight. Streptavidin coated plates were bound with 50 μL of biotinylated TRCW5 antigen (CD3δε-Fc-Avi, SEQ ID NO: 39) at the concentrations indicated in the ELISA graph for 45 min at room temperature with shaking (FIG. 1, FIG. 3, FIG. 4) followed by washing 3× with 1×TBST. Plates were blocked with 200 ul 3% Milk in 1×TBST for ˜45 mins at room temperature followed by washing 3× with 1×TBST. E. coli cultures were harvested by centrifugation at […] for 10 mins 4° C. and 50 μL of supernatant was transferred into CD3-coated plates followed by incubation at 4 C for 45 min. Plates were washed 3× with 1×TBST. Bound scFv was detected with Chicken Polyclonal Anti-HA-HRP (ab1190) [1:1000] for ˜45 mins RT and luminescence detected with chemi-luminescent substrate.

[2] = target: T4, TRCW5 antigen (CD3δε-Fc-Avi); assay: ELISA: biotinylated TRCW5 on streptavidin plates at the [CD3] of the x axis, E. coli scFv supernatant, anti-HA-HRP, luminescence
Description: as §1

[3] = target: T4, TRCW5 antigen (CD3δε-Fc-Avi); assay: ELISA after heat
[4] = target: T1, Human CD79b, endogenous on diffuse …; assay: flow cytometry on Carnaval cells; bispecific control in the trispecific table
Description: (§2) All cells were washed with BD stain buffer (BD Biosciences; Cat #554657), centrifuged at 1200 RPM for 3 minutes, with supernatant discarded. […] All cells were washed with BD stain buffer (BD Biosciences; Cat #554657), centrifuged at 1200 RPM for 3 mins, with supernatant discarded. Cells were analyzed using Intellicyt (Sartorius) flow cytometer and mean fluorescent intensity (MFI) was generated using Forcyt software (Sartorius). MFI was graphed and EC50 values generated using GraphPad PRISM v.8. Dose response curves were generated by transforming the x axis values using the formula […]. Data was then graphed using non-linear regression curve fit analysis “log(agonist) vs. response-variable slope (four parameter)”.

[5] = target: T1, Human CD79b, endogenous on diffuse …; assay: flow cytometry on HBL-1 cells (endogenous CD79b), 1 h 37 C, anti-human IgG AF647
Description: as §2

[6] = target: T1, Human CD79b, endogenous on diffuse …; assay: flow cytometry on HBL-1 cells; bispecific control in the trispecific table
Description: as §2

[7] = target: T1, Human CD79b, endogenous on diffuse …; assay: flow cytometry on Carnaval cells (endogenous CD79b), 1 h 37 C, anti-human IgG AF647
Description: as §2

[8] = target: T2, Human CD79b short isoform, recombinant …; assay: SPR Biacore 8K, antibody captured by anti-human Fc, CD79b in solution, 25 C, 1:1 Langmuir
Description: (§3) General Protocol for SPR Affinity Assessment: Affinity assessment of the bispecific and trispecific constructs against human CD79b were measured using recombinantly expressed extracellular domain of CD79b short and long isoforms (CD9W7.001 and CD9W8.001, respectively) by Surface Plasmon Resonance (SPR) using a Biacore 8 k SPR system (Biacore) at 25° C. in HBSP+ buffer. Cross-reactivity of the same antibody panel was also assessed against cyno and mouse antigens (CD9W1.001 and CD9W105.001, respectively). Briefly, a C1 sensor chip was immobilized with anti-human Fc (target immobilization levels of >400 RU) using vendor recommended amino coupling protocol. The test antibodies were captured through immobilized anti-Fc and was followed by the injection of different CD79b constructs at different concentration series (human CD79b short and long isoforms: 30 nM-0.37 nM at 3-fold dilutions; cyno and mouse CD79b: 3000 nM-37 nM at 3-fold dilutions). The association and dissociation phases were measured for 2 or 3 minutes and 30 minutes, respectively.
(§4) The raw binding sensorgrams were processed using Biacore Insight software (Biacore) by double-referencing and the processed sensorgrams were analyzed for cross-reactivity and fitted to a 1:1 Langmuir model to obtain on-rates, off-rates and affinities.

[9] = target: T3, Human CD79b long isoform, recombinant …; assay: as above
Description: as §3, §4

[10] = target: T4, TRCW5 antigen (CD3δε-Fc-Avi); assay: ELISA: biotinylated TRCW5 on streptavidin plates at the antigen concentration of the x axis, E. coli scFv supernatant, anti-HA-HRP, luminescence
Description: as §1

T4 sequence (chain, as listed by the source mutant limits assumed): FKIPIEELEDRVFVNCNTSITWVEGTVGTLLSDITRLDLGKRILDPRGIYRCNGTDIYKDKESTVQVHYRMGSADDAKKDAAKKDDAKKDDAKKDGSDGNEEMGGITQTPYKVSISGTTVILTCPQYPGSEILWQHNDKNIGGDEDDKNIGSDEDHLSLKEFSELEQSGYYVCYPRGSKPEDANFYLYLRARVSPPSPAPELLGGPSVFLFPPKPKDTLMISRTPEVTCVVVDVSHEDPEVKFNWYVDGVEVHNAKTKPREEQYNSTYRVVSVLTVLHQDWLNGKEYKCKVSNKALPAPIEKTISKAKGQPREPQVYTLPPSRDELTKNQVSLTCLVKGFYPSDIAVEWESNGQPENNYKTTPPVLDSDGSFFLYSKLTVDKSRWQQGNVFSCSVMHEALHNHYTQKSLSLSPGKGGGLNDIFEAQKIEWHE

EC50 [1] [nM] | EC50 (read off the curve) [2] [nM] | % Retained 55° C. [3] [%] | % Retained 60° C. [3] [%] | % Retained 65° C. [3] [%] | EC50 [4] [nM] | EC50 [5] [nM] | EC50 [6] [nM] | EC50 [7] [nM] | Kd [8] [nM] | Kd [9] [nM] | binding result [10] | Binder
~0.397 | ~0.4 | 19 | 0 | 1 | – | – | – | – | – | – | – | B1
– | – | – | – | – | 44 | 97 | 97 | 44 | 0.58 | 0.022 | – | B2
– | – | – | – | – | 12 | 15 | 15 | 12 | 0.35 | 0.052 | – | B3
– | – | – | – | – | – | – | – | – | – | – | no binding (tested: 10 ug/ml (antigen)) | B4
